Protein production data for ten sequences are collected here from a protein production outcome set (Wang et al. 2014).

This data set can be described thus: label from the status in PepcDB records.

Regarding “SHIIVIGAGITGVTSAYELIKLGFQVTVIDRHLFPAMETSFANGGQLSACNAEVWNQRSTISKGIKWMSKKDAPLLLNPSFNLHKYSWLFEFLSHIKHYEQNTIETVRLALLARKRLFEIAEIENIDFNLERRGILHIYHTPSDYEIAKNVNDLLNKATLHRYQVNPDEIKTIEPALSGEYCGGYYTPDDATGDIHKFCVGLADSSKRDGVDYKFGWDVNQIELLEKGVIVSCIPSTENMTEPSSQHLRLEADGIVVCGGVGSYQLAHMLGDRVNVYPVKGYSITVHLNDEHSIENAPWVSLLDESAKIVTSRLGKDRLRVAGTAEFNGYNRDIRADRIQPLINWVNANFEISTEHVVPWSGLRPMMPNMMPVVRQGKHPRVFYNTGHGHLGWTLSAATAAIIGQEIQSKIP”, the protein production result is recorded as “failed”.
With “SHRSAAAFVDAERELFVRDQPIGPDDRVLAGLSVAFDASCEEMWLAWGHGACLVPAPRSLVRTGLDLGPWLISRDISIVSTVPTLAGMWPAEALDNVRLLILGGEACSAELVARVASSRREVWNTYGPTEATVVTCAARLEAGQPVAIGLPLAG”, the protein production entry was “failed”.
The entry for “SKALLFVIIGSVLVMLLLVGVIIMLLMGNKEESKENASKNTQEVQANPMANKNQEAKEGSNIQQYLVLGPLYAIDAPFAVNLVSQNGRRYLKASISLELSNEKLLNEVKVKDTAIKDTIIEILSSKSVEEVVTNKGKNKLKDEIKSHLNSFLIDGFIKNVFFTDFIIQ” is “failed”; for “SKCLERFGPFYLLYKDRLSFVNADASELTFHPDTAVLRLKAPHDALISLLGQSPKSILDTTMGLASDSLVMAAVRNRVTALESQEVIFQVVSRGLATYQTDNKQIEKAMRSIKAVKSDSLTFLKSQTDHSFDIIYADPMFSETIKESENLNAIKPLANGSRLTREWLDEAKRVGRERIIIKAHFRDSVFEELGFERQVRP” it is “failed”; for “SKGMALRSVGGMVIESPRNETEHWLLETVGRQAQQAGIGMPTVAIYDSADINAFATGAKRDDSLVAVSTGLLHNMTRDEAEAVLAHEVSHIANGDMVTMTLMQG” it is “not failed”.
The result for “SKSTKNDVKITALSTSESQIISHMLRLLIEHDTHGKIKPTLVNNLGSSTIQHNALINGDANISGVRYNGTDLTGALKEAPIKDPKKAMIATQQGFKKKFDQTFFDSYGFANTYAFMVTKETAKKYHLETVSDLAKHSKDLRLGMDSSWMNRKGDGYEGFKKEYGFDFGTVRPMQIGLVYDALNTEKLDVALGYSTDGRIAAYDLKVLKDDKQFFPPYAASAVATNELLRQHPELKTTINKLTGKISTSEMQRLNYEADGKGKEPAVVAEEFLKKHHYFD” reads “not failed”.
On to “SLDPVSQSKLEQAIHDQIPQLAKTAGKDLEAAAIAVDRHSGEIRAMVGGKRTGYDGFNRVLNASRQIGSLVKPAVYLTALAHPDQYNLATTLEDKPLTLKGSEGSAWTPRNYDRQYRGEVPLYLALAQSLNVPTVALGMKLGIDQVSATLGKLGVNRDEIRPVPSMLLGSFSLTPYQVAQMYQTLTNSGKKAPLSALRSVLDLEGNVLYESLPRVSQAVDQQAAWLTTYAMKQGVQEGTGRYLNAQFSSAALAGKTGTTNDNRDSWFVGVDGREVTTIWLGRDDNQPTKLTGASGALRVYAQYLKYRIPEKLQLPW”, for which the protein production result is “failed”.
The result for “SLENAGSRPFLADFNGFSYLELKGLHTFERDLGEKMALEMVFLARGPSGLLLYNGQKTDGKGDFVSLALHNRHLEFRYDLGKGAAIIRSKEPIALGTWVRVFLERNGRKGALQVGDGPRVLGESPVPHTMLNLKEPLYVGGAPDFSKLARGAAVASGFDGAIQLVSLRGHQLLTQEHVLRAVDVAPFAG” reads “not failed”; that for “SLEPAQANMDISTGHMILAYMEDHLRNRDRLAKEWQALCAYQAEPNTCATAQGEGNIKKNRHPDFLPYDHARIKLKVESSPSRSDYINASPIIEHDPRMPAYIATQGPLSHTIADFWQMVWESGCTVIVMLTPLVEDGVKQCDRYWPDEGASLYHVYEVNLVSEHIWCEDFLVRSFYLKNVQTQETRTLTQFHFLSWPAEGTPASTRPLLDFRRKVNKCYRGRSCPIIVHCSDGAGRTGTYILIDMVLNRMAKGVKEIDIAATLEHVRDQRPGLVRSKDQFEFALTAVAEEVNAILKALPQ”, “not failed”; that for “SLGDQKPATIYAPTVRVTPNPAWPQVSWQLLVAKPSAARIIDSPRINVRPTPGELQVYHGAGWAQPATDMLEDSVVRAFEDSGKIAAVARIGAGIRSDYKLAIDVRRFESDYAGQSLPAATIELNAKLLHSSDQRVVASRTFTVARPSSSTDTAAVAAAFEQALTQVTTELVGWTLITGQQDSQTLPRAL”, “not failed”.
